We go through 54 molecules from publication PMC314469, “Protein Interaction Networks by Proteome Peptide Scanning” (PLoS Biology, 2004).

The test concerns the target T1, Myo5 SH3 (MYO5_YEAST), Q04439.
T1 chain: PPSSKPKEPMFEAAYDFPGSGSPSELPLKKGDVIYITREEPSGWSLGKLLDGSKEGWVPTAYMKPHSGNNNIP
Description: SPOT array.
EEMGMEEPQAPEAF [YPL176C 44-57] showed a normalised SPOT signal, Boehringer light units (BLU); mean over the file's lines of this peptide of 128.

In turn, EPATLPLPGTPTLA [YKR041W 168-181] registered a normalised SPOT signal, Boehringer light units (BLU); mean over the file's lines of this peptide of 61.8.

On to EPEPLMSPVPPSSA [YMR313C 491-504], for which the normalised SPOT signal, Boehringer light units (BLU); mean over the file's lines of this peptide was found to be 215.

FFQLMQSPSLPLLM [YDR159W 429-442] came in with a normalised SPOT signal, Boehringer light units (BLU); mean over the file's lines of this peptide of 830.

In turn, ELYYLNDPKYPGTK [YGR154C 125-138] gave a normalised SPOT signal, Boehringer light units (BLU); mean over the file's lines of this peptide of 0.

Molecule FFFFHLSPSIPFWF [YDL196W 57-70] yielded a normalised SPOT signal, Boehringer light units (BLU); mean over the file's lines of this peptide of 6490.

EAIKLGVPKGPLFA [YKR079C 211-224] came in with a normalised SPOT signal, Boehringer light units (BLU); mean over the file's lines of this peptide of 130.

For the molecule DLKEFNGPEPPIKR [YNL286W 144-157], the normalised SPOT signal, Boehringer light units (BLU); mean over the file's lines of this peptide came to 126.

Regarding DFRLHYYPKDPSNV [YER172C 104-117], the normalised SPOT signal, Boehringer light units (BLU); mean over the file's lines of this peptide is 77.7.

EPPSWKPPDLPIRL [YIL156W 498-511] showed a normalised SPOT signal, Boehringer light units (BLU); mean over the file's lines of this peptide of 87000.

Consider EFDMLLLPFIPSID [YHR109W 353-366], for which the normalised SPOT signal, Boehringer light units (BLU); mean over the file's lines of this peptide was 249.

Turning to FEESMNNPLPPLPP [YDL117W 176-189], the normalised SPOT signal, Boehringer light units (BLU); mean over the file's lines of this peptide is 169.

As to ELEDFAFPDTPTIV [YBR221C 343-356], the normalised SPOT signal, Boehringer light units (BLU); mean over the file's lines of this peptide turned out to be 255.

The molecule DLLGLSTPQSPTNS [YHR108W 433-446] returned a normalised SPOT signal, Boehringer light units (BLU); mean over the file's lines of this peptide of 91.9.

The molecule FARTLKIPNEPSPG [YKR038C 231-244] gave a normalised SPOT signal, Boehringer light units (BLU); mean over the file's lines of this peptide of 146.

On to DPSLYQIPEPPRGG [YOR307C 21-34], for which the normalised SPOT signal, Boehringer light units (BLU); mean over the file's lines of this peptide was 98.8.

EAGDFEQPKGPAGA [YPL127C 99-112] had a normalised SPOT signal, Boehringer light units (BLU); mean over the file's lines of this peptide of 49.8.

Molecule FFPIMSLPVTPVKS [YER032W 46-59] displayed a normalised SPOT signal, Boehringer light units (BLU); mean over the file's lines of this peptide of 122.

The molecule FEKRYYVPEDPSQD [YPR184W 1320-1333] yielded a normalised SPOT signal, Boehringer light units (BLU); mean over the file's lines of this peptide of 121.

The molecule EAFKLPKPWSPNSH [YHR036W 272-285] came in with a normalised SPOT signal, Boehringer light units (BLU); mean over the file's lines of this peptide of 141.

Molecule ELRKLVQPITPIIK [YGR062C 88-101] had a normalised SPOT signal, Boehringer light units (BLU); mean over the file's lines of this peptide of 170.

EFSPHSTPVTPRRL [YGL003C 167-180]: the normalised SPOT signal, Boehringer light units (BLU); mean over the file's lines of this peptide turned out to be 114.

The molecule DFVTLHVPATPETE [YER081W 252-265] showed a normalised SPOT signal, Boehringer light units (BLU); mean over the file's lines of this peptide of 190.

ELAEFTDPSSPVSE [YNL278W 118-131] registered a normalised SPOT signal, Boehringer light units (BLU); mean over the file's lines of this peptide of 189.

Regarding EPIAHLFPPGPKNP [YEL031W 876-889], the normalised SPOT signal, Boehringer light units (BLU); mean over the file's lines of this peptide was 356.

Molecule FENLLMEPNLPFFT [YJR031C 942-955] returned a normalised SPOT signal, Boehringer light units (BLU); mean over the file's lines of this peptide of 202.

ELRTLFVPLIPSVT [YLR454W 1338-1351]: the normalised SPOT signal, Boehringer light units (BLU); mean over the file's lines of this peptide is 294.

In turn, DLIHLDSPQQPNGY [YPL020C 565-578] registered a normalised SPOT signal, Boehringer light units (BLU); mean over the file's lines of this peptide of 220.

As to ELLSFLSPGKPSKG [YML005W 159-172], the normalised SPOT signal, Boehringer light units (BLU); mean over the file's lines of this peptide is 57.4.

The molecule DPNAYMQPQVPVQM [YIL109C 92-105] yielded a normalised SPOT signal, Boehringer light units (BLU); mean over the file's lines of this peptide of 160.

Consider FASQLRKPRAPMRN [YER141W 445-458], for which the normalised SPOT signal, Boehringer light units (BLU); mean over the file's lines of this peptide amounted to 460.

DPNQLSTPPTPKSA [YGR070W 171-184]: the normalised SPOT signal, Boehringer light units (BLU); mean over the file's lines of this peptide was found to be 166.

Turning to EETEMLAPKLPEEN [YNR028W 128-141], the normalised SPOT signal, Boehringer light units (BLU); mean over the file's lines of this peptide was determined as 81.6.

The molecule EAHQHHQPPEPQPY [YDR432W 85-98] registered a normalised SPOT signal, Boehringer light units (BLU); mean over the file's lines of this peptide of 0.

DLSYYLRPIKPFNT [Q0115 378-391] yielded a normalised SPOT signal, Boehringer light units (BLU); mean over the file's lines of this peptide of 161.

In turn, FEMVFRHPEQPHMI [YBL088C 1519-1532] displayed a normalised SPOT signal, Boehringer light units (BLU); mean over the file's lines of this peptide of 310.

Molecule EARPYSEPSEPEDS [YER162C 705-718] gave a normalised SPOT signal, Boehringer light units (BLU); mean over the file's lines of this peptide of 208.

Molecule DFIKLMNPTLPSLK [YNL118C 54-67] returned a normalised SPOT signal, Boehringer light units (BLU); mean over the file's lines of this peptide of 152.

As for FFNRYPNPYSPHVL [YLR193C 22-35], the normalised SPOT signal, Boehringer light units (BLU); mean over the file's lines of this peptide was 137.

In turn, DFNKFERPNIPVEE [YPL242C 282-295] had a normalised SPOT signal, Boehringer light units (BLU); mean over the file's lines of this peptide of 212.

As to FAYSLGLPGAPKIK [YJL033W 477-490], the normalised SPOT signal, Boehringer light units (BLU); mean over the file's lines of this peptide turned out to be 75.8.

Take FESFLRPPSTPDLP [YLR149C 637-650]: the normalised SPOT signal, Boehringer light units (BLU); mean over the file's lines of this peptide came out at 70.2.

EWPGLDPPYIPLDF [YLR308W 63-76] came in with a normalised SPOT signal, Boehringer light units (BLU); mean over the file's lines of this peptide of 62.7.

For the molecule DLSVHTSPHGPIGS [YGR068C 274-287], the normalised SPOT signal, Boehringer light units (BLU); mean over the file's lines of this peptide was 186.

FESTLPIPTYPREG [YEL070W 20-33] yielded a normalised SPOT signal, Boehringer light units (BLU); mean over the file's lines of this peptide of 122.

Molecule EADGLVQPVVPDKV [YER036C 364-377] gave a normalised SPOT signal, Boehringer light units (BLU); mean over the file's lines of this peptide of 75.1.

In turn, DELLLMSPELPADL [YHR186C 271-284] displayed a normalised SPOT signal, Boehringer light units (BLU); mean over the file's lines of this peptide of 16.

For EAYRLNYPELPRLT [YLR073C 184-197], the normalised SPOT signal, Boehringer light units (BLU); mean over the file's lines of this peptide came to 125.

DLMALKYPYFPTKM [YNL059C 225-238] showed a normalised SPOT signal, Boehringer light units (BLU); mean over the file's lines of this peptide of 139.

Turning to ELRDLDIPLVPSPK [YLR131C 69-82], the normalised SPOT signal, Boehringer light units (BLU); mean over the file's lines of this peptide was determined as 75.3.

For the molecule FEDHHITPSKPGGQ [YDR451C 287-300], the normalised SPOT signal, Boehringer light units (BLU); mean over the file's lines of this peptide was determined as 67.9.

In the case of DFSSYGPPGTPGYD [YLR342W 92-105], the normalised SPOT signal, Boehringer light units (BLU); mean over the file's lines of this peptide is 108.

In turn, ELFTFDMPTDPSSF [YCR091W 173-186] displayed a normalised SPOT signal, Boehringer light units (BLU); mean over the file's lines of this peptide of 44.9.

The molecule DFPLYKSPAFPSSS [YPR039W 19-32] registered a normalised SPOT signal, Boehringer light units (BLU); mean over the file's lines of this peptide of 173.
